Results: article doi:10.1101/2021.04.24.441265

Target: C/EBPβ bZIP domain (mouse, UniProt P28033 221-296)
Assay: fluorescence polarization

Sequence of C/EBPβ bZIP domain (P28033 221-296): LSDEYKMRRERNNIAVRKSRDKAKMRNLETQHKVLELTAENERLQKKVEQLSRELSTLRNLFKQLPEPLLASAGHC

B1: FP_CREBmeth (half-CRE•C/EBP Il36A, methylated) (dsDNA)
DNA 1: CATCTTACGTCACCT
DNA 2: AGGTGACGTAAGATG
modifications: mC at strand 1 position 8 and strand 2 position 7 (CpG, both strands)
  Kd: 100 ± 30 nM
